Among the data in patent US20250223314A1 are Kd values, retold here.

The assay has as its target Tocilizumab (IgG1). In words: SPR (Biacore), tocilizumab immobilised via EDC/NHS on CM5 chip, receptor as analyte. On the technique in general: Surface plasmon resonance follows binding to a sensor surface in real time, without labels.

Turning to “Deglycosylated D2 (Man9 deglycosylated using EndoH) (receptor)”, the Kd (in general, the concentration at which binding is half-saturated) came out at 17.6 nM.
Substance “Man9 (Pichia-produced FcγRIIIa domain 2 ligand with Mannose 9 glycosylation) (receptor)” came in with a Kd of 0.478 nM.
